The labels stand for the following.
B1: ZNF75A (parent)
chain: RTHTGEQPYTCSICRRNFSRRSSL

The values that follow come from the supplement of paper PMC10567573.
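Also: lentivirally expressed fusions sorted by FACS into six bins by GFP to DsRed ratio, PSI derived from sequencing read proportions per bin multiplied by bin number.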

Variants of B1 are the subject of the data set. Nature of the data set: protein stability index of a GFP-peptide fusion (GPS, HEK-293T) (PSI 1-6); higher = more stable. The conditions noted are these: c terminus: a fixed tail appended.
Regarding RTHTGEQPYTCSDCRRNFSRRSSL [I13D], the protein stability index turned out to be 2.65. In the case of RTHTGEQPYTCSYCRRNFSRRSSL [I13Y] it was 1.96; in that of RTHTGEQPYTCSMCRRNFSRRSSL [I13M], 2.21. RTHTGEQPYTCSHCRRNFSRRSSL [I13H]: the protein stability index worked out at 2.81. For RTHTGEQPYTCSWCRRNFSRRSSL [I13W], the protein stability index turned out to be 2.51. In the case of RTHTGEQPYTCSGCRRNFSRRSSL [I13G] it was 2.42.

Take RTHTGEQPYTCSSCRRNFSRRSSL [I13S]: the protein stability index worked out at 2.71.

With RTHTGEQPYTCSECRRNFSRRSSL [I13E], the protein stability index was 2.71.

For RTHTGEQPYTCSPCRRNFSRRSSL [I13P], the protein stability index is 3.44.

As for RTHTGEQPYTCSACRRNFSRRSSL [I13A], the protein stability index was found to be 2.54. RTHTGEQPYTCSVCRRNFSRRSSL [I13V]: the protein stability index stood at 3.18. Take RTHTGEQPYTCSLCRRNFSRRSSL [I13L]: the protein stability index is 2.25. In the case of RTHTGEQPYTCSNCRRNFSRRSSL [I13N] it was 3.72; in that of RTHTGEQPYTCSCCRRNFSRRSSL [I13C], 2.71. Take RTHTGEQPYTCSRCRRNFSRRSSL [I13R]: the protein stability index was found to be 2.96. In the case of RTHTGEQPYTCSKCRRNFSRRSSL [I13K] it was 3.5; in that of RTHTGEQPYTCSQCRRNFSRRSSL [I13Q], 2.74; in that of RTHTGEQPYTCSFCRRNFSRRSSL [I13F], 2.65. With RTHTGEQPYWCSICRRNFSRRSSL [T10W] the figure was 2.63. In the case of RTHTGEQPYQCSICRRNFSRRSSL [T10Q], the protein stability index came to 2.32.

As to RTHTGEQPYSCSICRRNFSRRSSL [T10S], the protein stability index worked out at 2.01. With RTHTGEQPYVCSICRRNFSRRSSL [T10V] the figure was 3.85; with RTHTGEQPYDCSICRRNFSRRSSL [T10D], 3.48. Consider RTHTGEQPYNCSICRRNFSRRSSL [T10N], for which the protein stability index turned out to be 2.67. With RTHTGEQPYRCSICRRNFSRRSSL [T10R], the protein stability index came out at 2.57.

Take RTHTGEQPYFCSICRRNFSRRSSL [T10F]: the protein stability index turned out to be 2.71. In the case of RTHTGEQPYGCSICRRNFSRRSSL [T10G] it was 2.18; in that of RTHTGEQPYACSICRRNFSRRSSL [T10A], 2.85; in that of RTHTGEQPYCCSICRRNFSRRSSL [T10C], 2.63. With RTHTGEQPYYCSICRRNFSRRSSL [T10Y], the protein stability index is 2.5.

Regarding RTHTGEQPYMCSICRRNFSRRSSL [T10M], the protein stability index was determined as 3.48. Turning to RTHTGEQPYKCSICRRNFSRRSSL [T10K], the protein stability index was determined as 2.43.

Regarding RTHTGEQPYECSICRRNFSRRSSL [T10E], the protein stability index was 2.37. As for RTHTGEQPYHCSICRRNFSRRSSL [T10H], the protein stability index is 2.85. In the case of RTHTGEQPYICSICRRNFSRRSSL [T10I] it was 3.52; in that of RTHTGEQPYPCSICRRNFSRRSSL [T10P], 3.09; in that of RTHTGEQPYLCSICRRNFSRRSSL [T10L], 2.88. With RTHTGEQPYTCSICFRNFSRRSSL [R15F] the figure was 1.85; with RTHTGEQPYTCSICWRNFSRRSSL [R15W], 2.02; with RTHTGEQPYTCSICIRNFSRRSSL [R15I], 2.32. Turning to RTHTGEQPYTCSICPRNFSRRSSL [R15P], the protein stability index stood at 3.19. With RTHTGEQPYTCSICHRNFSRRSSL [R15H] the figure was 2.49.

As to RTHTGEQPYTCSICKRNFSRRSSL [R15K], the protein stability index worked out at 2.86.

As to RTHTGEQPYTCSICQRNFSRRSSL [R15Q], the protein stability index was found to be 2.25. With RTHTGEQPYTCSICCRNFSRRSSL [R15C] the figure was 2; with RTHTGEQPYTCSICARNFSRRSSL [R15A], 2.13. In the case of RTHTGEQPYTCSICSRNFSRRSSL [R15S] it was 2.47; in that of RTHTGEQPYTCSICGRNFSRRSSL [R15G], 2.93. As to RTHTGEQPYTCSICMRNFSRRSSL [R15M], the protein stability index stood at 1.6. Regarding RTHTGEQPYTCSICNRNFSRRSSL [R15N], the protein stability index stood at 2.84. Take RTHTGEQPYTCSICYRNFSRRSSL [R15Y]: the protein stability index amounted to 1.89. Regarding RTHTGEQPYTCSICERNFSRRSSL [R15E], the protein stability index worked out at 2.03. With RTHTGEQPYTCSICLRNFSRRSSL [R15L] the figure was 1.54.

As to RTHTGEQPYTCSICVRNFSRRSSL [R15V], the protein stability index was 1.7. With RTHTGEQPYTCSICDRNFSRRSSL [R15D], the protein stability index came to 2.02.

RTHTGEQPYTCSICTRNFSRRSSL [R15T]: the protein stability index turned out to be 2.34. As to RTHTGEQPYTLSICRRNFSRRSSL [C11L], the protein stability index turned out to be 3.61. Turning to RTHTGEQPYTTSICRRNFSRRSSL [C11T], the protein stability index came out at 4.58. In the case of RTHTGEQPYTHSICRRNFSRRSSL [C11H], the protein stability index stood at 3.94.

Take RTHTGEQPYTKSICRRNFSRRSSL [C11K]: the protein stability index is 3.93.

On to RTHTGEQPYTASICRRNFSRRSSL [C11A], for which the protein stability index came to 3.92.

Regarding RTHTGEQPYTRSICRRNFSRRSSL [C11R], the protein stability index was found to be 3.74. With RTHTGEQPYTMSICRRNFSRRSSL [C11M] the figure was 4.07. Take RTHTGEQPYTESICRRNFSRRSSL [C11E]: the protein stability index amounted to 4.09. In the case of RTHTGEQPYTFSICRRNFSRRSSL [C11F] it was 3.73. In the case of RTHTGEQPYTGSICRRNFSRRSSL [C11G] it was 3.37. As to RTHTGEQPYTISICRRNFSRRSSL [C11I], the protein stability index was 3.79.

Consider RTHTGEQPYTPSICRRNFSRRSSL [C11P], for which the protein stability index came out at 4.22. For RTHTGEQPYTSSICRRNFSRRSSL [C11S], the protein stability index came out at 3.86.

Consider RTHTGEQPYTVSICRRNFSRRSSL [C11V], for which the protein stability index came out at 3.61. In the case of RTHTGEQPYTNSICRRNFSRRSSL [C11N] it was 4; in that of RTHTGEQPYTYSICRRNFSRRSSL [C11Y], 3.3; in that of RTHTGEQPYTQSICRRNFSRRSSL [C11Q], 4.39. With RTHTGEQPYTDSICRRNFSRRSSL [C11D] the figure was 4.34; with RTHTGEQPYTWSICRRNFSRRSSL [C11W], 3.77. RTHTGEQPYTCSICRDNFSRRSSL [R16D]: the protein stability index is 1.78. As to RTHTGEQPYTCSICRNNFSRRSSL [R16N], the protein stability index stood at 1.99. In the case of RTHTGEQPYTCSICRANFSRRSSL [R16A] it was 1.99; in that of RTHTGEQPYTCSICRSNFSRRSSL [R16S], 1.86; in that of RTHTGEQPYTCSICRKNFSRRSSL [R16K], 2.92. With RTHTGEQPYTCSICRFNFSRRSSL [R16F] the figure was 1.81; with RTHTGEQPYTCSICRHNFSRRSSL [R16H], 1.59; with RTHTGEQPYTCSICRQNFSRRSSL [R16Q], 2.99. In the case of RTHTGEQPYTCSICRVNFSRRSSL [R16V] it was 1.79. Turning to RTHTGEQPYTCSICRPNFSRRSSL [R16P], the protein stability index stood at 2.3. In the case of RTHTGEQPYTCSICRYNFSRRSSL [R16Y] it was 1.59.

As to RTHTGEQPYTCSICRGNFSRRSSL [R16G], the protein stability index was 2.05. In the case of RTHTGEQPYTCSICRWNFSRRSSL [R16W] it was 1.37. In the case of RTHTGEQPYTCSICRLNFSRRSSL [R16L], the protein stability index is 1.27.

RTHTGEQPYTCSICRTNFSRRSSL [R16T]: the protein stability index came out at 2.34. As for RTHTGEQPYTCSICRCNFSRRSSL [R16C], the protein stability index amounted to 1.34. In the case of RTHTGEQPYTCSICRINFSRRSSL [R16I] it was 1.88. In the case of RTHTGEQPYTCSICRMNFSRRSSL [R16M] it was 2.43. For RTHTGEQPYTCSICRENFSRRSSL [R16E], the protein stability index came out at 2.53.
